From patent US20190367631A1 (Regeneron, published 2019)

How the values were obtained:
[1] = target: T1, human MSR1 extracellular domain expressed with a N-terminal nonahistidine tag (human, UniProt P21757 77-451); assay: competition ELISA, plate-coated His9-hMSR1; 100 nM antibody, competitor ligand Ac-LDL
T1 construct: extracellular domain; also called His9-hMSR1; His-hMSR1
T1 sequence: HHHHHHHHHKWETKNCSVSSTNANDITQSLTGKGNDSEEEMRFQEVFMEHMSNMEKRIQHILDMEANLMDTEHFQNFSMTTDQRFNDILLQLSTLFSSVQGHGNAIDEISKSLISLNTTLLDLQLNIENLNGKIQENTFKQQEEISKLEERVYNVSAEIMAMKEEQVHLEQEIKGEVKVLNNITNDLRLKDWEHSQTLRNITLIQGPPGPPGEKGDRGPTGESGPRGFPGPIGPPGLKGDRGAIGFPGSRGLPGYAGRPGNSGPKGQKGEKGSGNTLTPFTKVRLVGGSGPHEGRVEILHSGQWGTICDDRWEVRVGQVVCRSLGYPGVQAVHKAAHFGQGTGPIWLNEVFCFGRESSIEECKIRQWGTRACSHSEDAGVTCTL
Experimental: (§1) Buffer alone was also added to wells on each coat. […] This assay was conducted in four different assay runs.
(§2) Data analysis was performed using a sigmoidal dose-response model within Prism™ software (GraphPad).

[2] = target: T1, human MSR1 extracellular domain …; assay: competition ELISA, plate-coated His9-hMSR1; 300 nM antibody, competitor ligand biot-AGE-BSA
Experimental: as §1, §2

[3] = target: T1, human MSR1 extracellular domain …; assay: competition ELISA, plate-coated His9-hMSR1; 500 nM antibody, competitor ligand 10 nM Ox-LDL
Experimental: as §1, §2

[4] = target: T2, mouse MSR1 extracellular domain expressed with a N-terminal nonahistidine tag (His9-mMSR1); R&D Systems, Cat … (mouse, UniProt P30204 79-458); assay: BLI Octet, 25 C, antibody captured; kd fixed, no dissociation seen
T2 construct: extracellular domain; not shown: N-terminal nonahistidine tag
T2 sequence (looked up): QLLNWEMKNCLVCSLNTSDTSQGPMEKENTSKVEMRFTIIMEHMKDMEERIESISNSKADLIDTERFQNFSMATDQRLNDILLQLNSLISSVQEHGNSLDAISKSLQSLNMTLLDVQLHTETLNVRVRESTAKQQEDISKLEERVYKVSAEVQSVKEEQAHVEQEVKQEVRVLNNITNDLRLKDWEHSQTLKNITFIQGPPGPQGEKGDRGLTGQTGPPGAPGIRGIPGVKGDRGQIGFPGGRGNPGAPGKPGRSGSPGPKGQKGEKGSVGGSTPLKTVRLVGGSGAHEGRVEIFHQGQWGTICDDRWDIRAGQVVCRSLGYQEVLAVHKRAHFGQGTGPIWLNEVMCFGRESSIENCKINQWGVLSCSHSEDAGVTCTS

[5] = target: T3, human MSR1 extracellular domain expressed with a N-terminal nonahistidine tag (His9-hMSR1); R&D Systems, Cat … (human, UniProt P21757 77-451); assay: SPR Biacore, 25 C, antibody captured; kd fixed, no dissociation seen
T3 construct: extracellular domain; also called His-hMSR1; 9xHis-hMSR1; not shown: N-terminal nonahistidine tag
T3 sequence (looked up): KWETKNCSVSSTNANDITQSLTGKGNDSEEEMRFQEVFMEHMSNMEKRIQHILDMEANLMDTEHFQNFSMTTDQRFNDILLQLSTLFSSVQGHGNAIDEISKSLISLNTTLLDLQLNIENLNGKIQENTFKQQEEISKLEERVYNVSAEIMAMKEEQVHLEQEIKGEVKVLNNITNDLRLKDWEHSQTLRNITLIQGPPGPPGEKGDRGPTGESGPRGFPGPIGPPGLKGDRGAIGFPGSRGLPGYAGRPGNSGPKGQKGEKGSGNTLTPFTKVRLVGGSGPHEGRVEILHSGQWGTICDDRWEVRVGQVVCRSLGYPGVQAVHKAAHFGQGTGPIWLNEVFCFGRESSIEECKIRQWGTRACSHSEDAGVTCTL

[6] = target: T4, monkey MSR1 extracellular domain expressed with a N-terminal hexahistidine-myc-myc tag (HMM-mfMSR1) (monkey (Macaca fascicularis)); assay: as above
T4 chain: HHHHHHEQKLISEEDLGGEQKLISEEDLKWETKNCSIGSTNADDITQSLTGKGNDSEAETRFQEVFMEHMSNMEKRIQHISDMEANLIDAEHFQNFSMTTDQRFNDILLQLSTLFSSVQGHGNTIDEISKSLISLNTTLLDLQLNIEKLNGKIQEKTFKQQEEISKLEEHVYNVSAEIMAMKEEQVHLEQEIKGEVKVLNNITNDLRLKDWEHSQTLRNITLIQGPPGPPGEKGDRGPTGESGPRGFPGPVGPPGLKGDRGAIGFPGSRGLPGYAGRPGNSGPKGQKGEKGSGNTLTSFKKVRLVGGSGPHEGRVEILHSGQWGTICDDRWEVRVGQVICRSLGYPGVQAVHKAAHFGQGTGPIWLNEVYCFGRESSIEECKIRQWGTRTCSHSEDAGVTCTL
Experimental: (§3) Binding affinities and kinetic constants of human anti-MSR1 antibodies for different MSR1 reagents were determined by real-time surface plasmon resonance (Biacore 4000). All binding studies were performed in 10 mM HEPES, 150 mM NaCl, 3 mM EDTA, and 0.05% v/v Surfactant Tween-20, pH 7.4 (HBS-ET) running buffer at 25° C. and 37° C.
(§4) The association rate (kₐ) and dissociation rate (kd) were determined by fitting the real-time binding sensorgrams to a 1:1 binding model with mass transport limitation using Scrubber 2.0c curve-fitting software. Binding dissociation equilibrium constant (KD) and dissociative half-life (t½) were calculated from the kinetic rates as:

[7] = target: T3, human MSR1 extracellular domain …; assay: SPR Biacore, 37 C, antibody captured; kd fixed, no dissociation seen
Experimental: as §3, §4

[8] = target: T4, monkey MSR1 extracellular domain …; assay: as above
Experimental: as §3, §4

[9] = target: T4, monkey MSR1 extracellular domain …; assay: SPR Biacore, 25 C, antibody captured;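 further: rates from 1:1 fit with mass transport limitation of real-time sensorgrams, HEPES-buffered saline with EDTA and Tween-20 at pH 7.4, KD and t½ derived from the kinetic rates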
Experimental: as §3, §4

[10] = target: T5, human MSR1 extracellular domain expressed with a N-terminal nonahistidine tag (His9-hMSR1); R&D Systems, Cat … (human, UniProt P21757 77-451); assay: SPR Biacore T200, 25 C, antibody captured by anti-human Fc, His9-hMSR1 injected
T5 construct: extracellular domain; Bought reagent; also called His-hMSR1; 9xHis-hMSR1
T5 sequence: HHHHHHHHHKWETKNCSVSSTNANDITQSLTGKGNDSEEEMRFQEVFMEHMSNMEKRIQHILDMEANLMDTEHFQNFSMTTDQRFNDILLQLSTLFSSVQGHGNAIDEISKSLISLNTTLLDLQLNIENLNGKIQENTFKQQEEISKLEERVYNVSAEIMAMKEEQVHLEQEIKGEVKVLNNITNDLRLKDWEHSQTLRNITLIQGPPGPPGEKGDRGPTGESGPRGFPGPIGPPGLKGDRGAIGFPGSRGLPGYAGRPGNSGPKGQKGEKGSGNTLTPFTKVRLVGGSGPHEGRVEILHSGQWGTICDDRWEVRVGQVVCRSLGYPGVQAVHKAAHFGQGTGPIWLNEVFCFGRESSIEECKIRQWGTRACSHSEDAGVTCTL
Experimental: (§5) All binding studies were performed in 10 mM HEPES, 300 mM NaCl, 3 mM EDTA, and 0.05% v/v Surfactant Tween-20, pH 7.4 (HBS-ET) running buffer at 25° C.
as §4

[11] = target: T5, human MSR1 extracellular domain …; assay: SPR Biacore T200, 25 C, antibody captured by anti-human Fc, His9-hMSR1 injected; no dissociation seen, kd fixed at 1.00E-05
Experimental: as §5, §4

[12] = target: T1, human MSR1 extracellular domain …; assay: competition ELISA, plate-coated His9-hMSR1; 500 nM antibody, competitor ligand 5 nM Ox-LDL
Experimental: as §1, §2

B1: H1H21234N-N297Q (antibody, V domains shown)
VH: QVQLQESGPGLVKPSETLSLTCTVTGGSISRNYWSWIRQPPGKGLEWIGYIYYSGSIDYNPSLKSRVTISVDTSKNQFSLKLSSMTAADTAVYYCARDRWNWKYGMDVWGQGTTVIVSS
VL: EIVLTQSPGTLSLSPGERATLSCRASQTVRNNYLAWYHQKPGQAPRLLIYGASSRATGIPDRFSGSGSGTDFTLTISRLEPEDFTVYYCHQYGNSPWTFGQGTKMEIKR
notes: Human IgG1 Fc with N297Q (EU numbering)
% Blocking [1]: 75%
% Blocking [2]: -27%
% Blocking [3]: 49%

B2: H1H21234N (antibody, V domains shown)
VH: QVQLQESGPGLVKPSETLSLTCTVTGGSISRNYWSWIRQPPGKGLEWIGYIYYSGSIDYNPSLKSRVTISVDTSKNQFSLKLSSMTAADTAVYYCARDRWNWKYGMDVWGQGTTVIVSS
VL: EIVLTQSPGTLSLSPGERATLSCRASQTVRNNYLAWYHQKPGQAPRLLIYGASSRATGIPDRFSGSGSGTDFTLTISRLEPEDFTVYYCHQYGNSPWTFGQGTKMEIKR
notes: Original human IgG1 Fc (no N297 mutation)
Kd [4]: ≤ 1.09 nM
koff [4]: ≤ 5e-05 s⁻¹
kon [4]: 46000 M⁻¹ s⁻¹
t½ [4]: 231 min
Kd [5]: ≤ 0.0166 nM
koff [5]: ≤ 1e-05 s⁻¹
kon [5]: 604000 M⁻¹ s⁻¹
t½ [5]: 1160 min
Kd [6]: ≤ 0.0298 nM
koff [6]: ≤ 1e-05 s⁻¹
kon [6]: 336000 M⁻¹ s⁻¹
t½ [6]: 1160 min
Kd [7]: 0.0148 nM
koff [7]: ≤ 1e-05 s⁻¹
kon [7]: 676000 M⁻¹ s⁻¹
t½ [7]: 1160 min
Kd [8]: 0.0138 nM
koff [8]: ≤ 1e-05 s⁻¹
kon [8]: 726000 M⁻¹ s⁻¹
t½ [8]: 1160 min

B3: H1H21234N-N297Q (antibody, V domains shown)
VH: QVQLQESGPGLVKPSETLSLTCTVTGGSISRNYWSWIRQPPGKGLEWIGYIYYSGSIDYNPSLKSRVTISVDTSKNQFSLKLSSMTAADTAVYYCARDRWNWKYGMDVWGQGTTVIVSS
VL: EIVLTQSPGTLSLSPGERATLSCRASQTVRNNYLAWYHQKPGQAPRLLIYGASSRATGIPDRFSGSGSGTDFTLTISRLEPEDFTVYYCHQYGNSPWTFGQGTKMEIKR
notes: Human IgG1 Fc with N297Q point mutation (EU numbering)
Kd [9]: 0.0466 nM
koff [9]: 1.95e-05 s⁻¹
kon [9]: 408000 M⁻¹ s⁻¹
t½ [9]: 593 min
Kd [4]: ≤ 1.31 nM
koff [4]: ≤ 5e-05 s⁻¹
kon [4]: 38200 M⁻¹ s⁻¹
t½ [4]: 231 min
Kd [5]: ≤ 0.0201 nM
koff [5]: ≤ 1e-05 s⁻¹
kon [5]: 497000 M⁻¹ s⁻¹
t½ [5]: 1160 min
Kd [7]: 0.0127 nM
koff [7]: ≤ 1e-05 s⁻¹
kon [7]: 787000 M⁻¹ s⁻¹
t½ [7]: 1160 min
Kd [8]: 0.0133 nM
koff [8]: ≤ 1e-05 s⁻¹
kon [8]: 750000 M⁻¹ s⁻¹
t½ [8]: 1160 min

B4: H1H21234N (antibody, V domains shown)
VH: QVQLQESGPGLVKPSETLSLTCTVTGGSISRNYWSWIRQPPGKGLEWIGYIYYSGSIDYNPSLKSRVTISVDTSKNQFSLKLSSMTAADTAVYYCARDRWNWKYGMDVWGQGTTVIVSS
VL: EIVLTQSPGTLSLSPGERATLSCRASQTVRNNYLAWYHQKPGQAPRLLIYGASSRATGIPDRFSGSGSGTDFTLTISRLEPEDFTVYYCHQYGNSPWTFGQGTKMEIKR
notes: Original human IgG1 Fc
% Blocking [1]: 70%
% Blocking [2]: 21%
% Blocking [3]: 98%

B5: H1H21234N-N297Q-LP3 (antibody, human IgG1, V domains shown)
VH: QVQLQESGPGLVKPSETLSLTCTVTGGSISRNYWSWIRQPPGKGLEWIGYIYYSGSIDYNPSLKSRVTISVDTSKNQFSLKLSSMTAADTAVYYCARDRWNWKYGMDVWGQGTTVIVSS
VL: EIVLTQSPGTLSLSPGERATLSCRASQTVRNNYLAWYHQKPGQAPRLLIYGASSRATGIPDRFSGSGSGTDFTLTISRLEPEDFTVYYCHQYGNSPWTFGQGTKMEIKR
modifications: steroid linker-payload LP3 clicked to azido-PEG3-amine on Q295 and Q297 (EU) of the heavy chain constant region
notes: antibody-drug conjugate; human IgG1 Fc with N297Q (EU); also called H1H21234N-LP3
kon [10]: 417000 M⁻¹ s⁻¹
Kd [11]: ≤ 0.024 nM
koff [11]: ≤ 1e-05 s⁻¹
t½ [11]: ≥ 1160 min

B6: H2aM25695N (antibody, mouse IgG2a, V domains shown)
VH: QVQLQESGPGLVKPSETLSLTCTVTGGSISRNYWSWIRQPPGKGLEWIGYIYYSGSINYNPSLKSRVTISVDMSKNQFSLKLNSVTAADTAVYYCARDRWNWKYGMDVWGQGTTVIVSS
VL: EIVLTQSPGTLSLSPGERATLSCRASQTVRNSYLAWYHQKPGQAPRLLIYGASSRATGIPDRFSGSGSGTDFTLTISRLEPEDFAVYYCQQYGSSYWTFGQGTKMEIKR
notes: Human variable domains with mouse IgG2a Fc
% Blocking [1]: 65%
% Blocking [2]: 16%
% Blocking [3]: 96%

B7: H2aM21229N (antibody, mouse IgG2a, V domains shown)
VH: EVQLVESGGGLVKPGGSLRLSCAASGFTFSRYSMNWVRQAPGKGLEWVSSISSSSSYIYYGDTVKGRFTISRDNAKKSLYLQMNSLRAEDTAVYYCVRDRGQLVLYFDYWGQGTLVTVSS
VL: DIQMTQSPASLSTSIRDRVTITCRASLSISSFLNWFQQRPGKAPKLLIYVASNLQSGVPSRFSDSGSGTDFTLTISSLQPEDFATYYCQQNYSTPPITFGQGTRLEIK
notes: as for B6
% Blocking [1]: -11%
% Blocking [12]: 38%
% Blocking [2]: 3%

B8: H2aM21228N (antibody, mouse IgG2a, V domains shown)
VH: VQLVESGGGLVQPGGSLRLSCAASGFTFSDHYMDWVRQAPGKGLEWVGRTRNKANSHTTEYAASVSGRFTISRDDSKNSLYLQMNSLKTEDTAVYYCTRAGIIGTLFDYWGQGTLVTVSS
VL: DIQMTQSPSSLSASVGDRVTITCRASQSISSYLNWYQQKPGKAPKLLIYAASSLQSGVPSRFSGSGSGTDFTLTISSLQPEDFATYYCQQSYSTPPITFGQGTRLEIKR
notes: as for B6
% Blocking [1]: -32%
% Blocking [12]: 41%
% Blocking [2]: -1%

B9: H2aM21235N (antibody, mouse IgG2a, V domains shown)
VH: EVQLVESGGGLVQPGGSLRLSCAASGFTFSDHYMDWVRQAPGKGLEWVGRTRNKANSYTTEYAASVSGRFTISRDDSKNSLYLQMNSLKTEDTAVYYCTRAGIIGTLFDYWGQGTLVTVSS
VL: DIQMTQSPSSLSASVGDRVTITCRASQIIGRYLNWFQQKPGKVPKLLIYAASSLQRGVPSRFSGSGSGTDFTLTISSLQPEDFATYYCQQSYNTPPITFGQGTRLEIKR
notes: as for B6
% Blocking [1]: 24%
% Blocking [12]: -4%
% Blocking [2]: -24%
